# Laboratory results from IntAct's records for PubMed 19407143.
# B1: Protein phosphatase 2C 77 (Arabidopsis thaliana (Mouse-ear cress)), O04719 (parent)
# chain: MDEVSPAVAVPFRPFTDPHAGLRGYCNGESRVTLPESSCSGDGAMKDSSFEINTRQDSLTSSSSAMAGVDISAGDEINGSDEFDPRSMNQSEKKVLSRTESRSLFEFKCVPLYGVTSICGRRPEMEDSVSTIPRFLQVSSSSLLDGRVTNGFNPHLSAHFFGVYDGHGGSQVANYCRERMHLALTEEIVKEKPEFCDGDTWQEKWKKALFNSFMRVDSEIETVAHAPETVGSTSVVAVVFPTHIFVANCGDSRAVLCRGKTPLALSVDHKPDRDDEAARIEAAGGKVIRWNGARVFGVLAMSRSIGDRYLKPSVIPDPEVTSVRRVKEDDCLILASDGLWDVMTNEEVCDLARKRILLWHKKNAMAGEALLPAEKRGEGKDPAAMSAAEYLSKMALQKGSKDNISVVVVDLKGIRKFKSKSLN
# partner: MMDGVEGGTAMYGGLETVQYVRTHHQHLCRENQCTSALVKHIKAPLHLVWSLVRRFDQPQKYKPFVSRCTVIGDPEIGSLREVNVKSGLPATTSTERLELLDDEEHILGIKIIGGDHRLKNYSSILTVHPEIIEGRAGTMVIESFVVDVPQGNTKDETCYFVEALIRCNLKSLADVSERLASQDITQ
# B2: Protein phosphatase 2C 56 (Arabidopsis thaliana (Mouse-ear cress)), P49597 (parent)
# chain: MEEVSPAIAGPFRPFSETQMDFTGIRLGKGYCNNQYSNQDSENGDLMVSLPETSSCSVSGSHGSESRKVLISRINSPNLNMKESAAADIVVVDISAGDEINGSDITSEKKMISRTESRSLFEFKSVPLYGFTSICGRRPEMEDAVSTIPRFLQSSSGSMLDGRFDPQSAAHFFGVYDGHGGSQVANYCRERMHLALAEEIAKEKPMLCDGDTWLEKWKKALFNSFLRVDSEIESVAPETVGSTSVVAVVFPSHIFVANCGDSRAVLCRGKTALPLSVDHKPDREDEAARIEAAGGKVIQWNGARVFGVLAMSRSIGDRYLKPSIIPDPEVTAVKRVKEDDCLILASDGVWDVMTDEEACEMARKRILLWHKKNAVAGDASLLADERRKEGKDPAAMSAAEYLSKLAIQRGSKDNISVVVVDLKPRRKLKSKPLN
# partner: B1 partner
# Variants of: B1
# Settings: with pyl9_arath PYL9, Q84MC7
row,effect of a mutation on the interaction,Variant
1,disrupting interaction,MDEVSPAVAVPFRPFTDPHAGLRGYCNGESRVTLPESSCSGDGAMKDSSFEINTRQDSLTSSSSAMAGVDISAGDEINGSDEFDPRSMNQSEKKVLSRTESRSLFEFKCVPLYGVTSICGRRPEMEDSVSTIPRFLQVSSSSLLDGRVTNGFNPHLSAHFFGVYDGHDGSQVANYCRERMHLALTEEIVKEKPEFCDGDTWQEKWKKALFNSFMRVDSEIETVAHAPETVGSTSVVAVVFPTHIFVANCGDSRAVLCRGKTPLALSVDHKPDRDDEAARIEAAGGKVIRWNGARVFGVLAMSRSIGDRYLKPSVIPDPEVTSVRRVKEDDCLILASDGLWDVMTNEEVCDLARKRILLWHKKNAMAGEALLPAEKRGEGKDPAAMSAAEYLSKMALQKGSKDNISVVVVDLKGIRKFKSKSLN [G168D]

# Variants of: B2
# Settings: with pyl9_arath PYL9, Q84MC7
row,effect of a mutation on the interaction,Variant
1,decreasing interaction,MEEVSPAIAGPFRPFSETQMDFTGIRLGKGYCNNQYSNQDSENGDLMVSLPETSSCSVSGSHGSESRKVLISRINSPNLNMKESAAADIVVVDISAGDEINGSDITSEKKMISRTESRSLFEFKSVPLYGFTSICGRRPEMEDAVSTIPRFLQSSSGSMLDGRFDPQSAAHFFGVYDGHDGSQVANYCRERMHLALAEEIAKEKPMLCDGDTWLEKWKKALFNSFLRVDSEIESVAPETVGSTSVVAVVFPSHIFVANCGDSRAVLCRGKTALPLSVDHKPDREDEAARIEAAGGKVIQWNGARVFGVLAMSRSIGDRYLKPSIIPDPEVTAVKRVKEDDCLILASDGVWDVMTDEEACEMARKRILLWHKKNAVAGDASLLADERRKEGKDPAAMSAAEYLSKLAIQRGSKDNISVVVVDLKPRRKLKSKPLN [G180D]
